Reference: patent US20220227830A1, “QD DOSING OF GIP RECEPTOR AGONIST PEPTIDE COMPOUNDS AND USES THEREOF” (Takeda Pharmaceutical Company Limited, priority 2020, published 2022)
Starred links: 1 amine or outer side, 2 acyl side, 3 side chain; linkers in the order of their positions; H or OH if unused. Non-standard residues stand in square brackets, D forms with d. Groups on a side chain read outwards from the residue. No end group written: not given here. *: point of attachment. C15 diacid = O=C(O)CCCCCCCCCCCCCC(=O)*; γGlu = O=C(O)[C@H](CCC(=O)[*:2])N[*:1]; NMeY = CN[C@@H](Cc1ccc(O)cc1)C(=O)O; AEEA = NCCOCCOCC(=O)O; Aib = CC(C)(N)C(=O)O

T1: full-length human GIPR with an N-terminal FLAG tag (human, UniProt P48546 22-466)
T1 sequence (looked up): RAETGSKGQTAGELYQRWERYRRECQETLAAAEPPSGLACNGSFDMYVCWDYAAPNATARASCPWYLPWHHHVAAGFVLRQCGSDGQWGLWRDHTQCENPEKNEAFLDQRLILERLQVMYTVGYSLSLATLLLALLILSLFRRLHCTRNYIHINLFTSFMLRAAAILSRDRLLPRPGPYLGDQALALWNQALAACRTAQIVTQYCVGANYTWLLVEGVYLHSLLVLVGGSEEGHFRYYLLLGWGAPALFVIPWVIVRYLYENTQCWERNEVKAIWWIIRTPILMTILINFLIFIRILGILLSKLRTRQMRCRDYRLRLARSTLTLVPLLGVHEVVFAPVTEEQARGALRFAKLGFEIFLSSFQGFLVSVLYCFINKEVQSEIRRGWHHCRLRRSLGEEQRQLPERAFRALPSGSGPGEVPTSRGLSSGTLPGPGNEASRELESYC


Key:
[1] = molecular target: dog plasma proteins; test: plasma protein binding, ultracentrifugation of spiked plasma, LC-MS/MS
[2] = molecular target: human plasma proteins; test: as above
[3] = molecular target: T1, full-length human GIPR with an …; test: cell-based or functional assay
[4] = molecular target: full-length human GLP-1R with an N-terminal FLAG tag (human, UniProt P43220 24-463); test: cell-based or functional assay

Row | Binder | Dog PPB (Fu,plasma), fraction unbound (fraction unbound) [1] | Human PPB (Fu,plasma), fraction unbound (fraction unbound) [2] | Human GIPR cAMP, HEK293T EC50 [3] | Human GLP1R cAMP HEK293T EC50 [4]
1 | [NMeY][Aib]EGTFISDYSI[Aib]K([AEEA-AEEA-γGlu-γGlu-C15 diacid])DR[Aib]AQ[Aib]NFVNWLLAQRPSSGAPPPS-NH2 (N-terminus assumed; SMILES CC[C@H](C)[C@H](NC(=O)[C@H](Cc1ccccc1)NC(=O)[C@@H](NC(=O)CNC(=O)[C@H](CCC(=O)O)NC(=O)C(C)(C)NC(=O)[C@H](Cc1ccc(O)cc1)NC)[C@@H](C)O)C(=O)N[C@@H](CO)C(=O)N[C@@H](CC(=O)O)C(=O)N[C@@H](Cc1ccc(O)cc1)C(=O)N[C@@H](CO)C(=O)N[C@H](C(=O)NC(C)(C)C(=O)N[C@@H](CCCCNC(=O)COCCOCCNC(=O)COCCOCCNC(=O)CC[C@H](NC(=O)CC[C@H](NC(=O)CCCCCCCCCCCCCC(=O)O)C(=O)O)C(=O)O)C(=O)N[C@@H](CC(=O)O)C(=O)N[C@@H](CCCNC(=N)N)C(=O)NC(C)(C)C(=O)N[C@@H](C)C(=O)N[C@@H](CCC(N)=O)C(=O)NC(C)(C)C(=O)N[C@@H](CC(N)=O)C(=O)N[C@@H](Cc1ccccc1)C(=O)N[C@H](C(=O)N[C@@H](CC(N)=O)C(=O)N[C@@H](Cc1c[nH]c2ccccc12)C(=O)N[C@@H](CC(C)C)C(=O)N[C@@H](CC(C)C)C(=O)N[C@@H](C)C(=O)N[C@@H](CCC(N)=O)C(=O)N[C@@H](CCCNC(=N)N)C(=O)N1CCC[C@H]1C(=O)N[C@@H](CO)C(=O)N[C@@H](CO)C(=O)NCC(=O)N[C@@H](C)C(=O)N1CCC[C@H]1C(=O)N1CCC[C@H]1C(=O)N1CCC[C@H]1C(=O)N[C@@H](CO)C(N)=O)C(C)C)[C@@H](C)CC) [Compound 19] | 0.0361 | 0.0321 |  | 
2 | [NMeY][Aib]EGTFISDYSIAK([γGlu-γGlu-γGlu-C15 diacid])DR[Aib]AQ[Aib]NFVNWLLAQSPSSGAPPPS-NH2 (N-terminus assumed; SMILES CC[C@H](C)[C@H](NC(=O)[C@H](CO)NC(=O)[C@H](Cc1ccc(O)cc1)NC(=O)[C@H](CC(=O)O)NC(=O)[C@H](CO)NC(=O)[C@@H](NC(=O)[C@H](Cc1ccccc1)NC(=O)[C@@H](NC(=O)CNC(=O)[C@H](CCC(=O)O)NC(=O)C(C)(C)NC(=O)[C@H](Cc1ccc(O)cc1)NC)[C@@H](C)O)[C@@H](C)CC)C(=O)N[C@@H](C)C(=O)N[C@@H](CCCCNC(=O)CC[C@H](NC(=O)CC[C@H](NC(=O)CC[C@H](NC(=O)CCCCCCCCCCCCCC(=O)O)C(=O)O)C(=O)O)C(=O)O)C(=O)N[C@@H](CC(=O)O)C(=O)N[C@@H](CCCNC(=N)N)C(=O)NC(C)(C)C(=O)N[C@@H](C)C(=O)N[C@@H](CCC(N)=O)C(=O)NC(C)(C)C(=O)N[C@@H](CC(N)=O)C(=O)N[C@@H](Cc1ccccc1)C(=O)N[C@H](C(=O)N[C@@H](CC(N)=O)C(=O)N[C@@H](Cc1c[nH]c2ccccc12)C(=O)N[C@@H](CC(C)C)C(=O)N[C@@H](CC(C)C)C(=O)N[C@@H](C)C(=O)N[C@@H](CCC(N)=O)C(=O)N[C@@H](CO)C(=O)N1CCC[C@H]1C(=O)N[C@@H](CO)C(=O)N[C@@H](CO)C(=O)NCC(=O)N[C@@H](C)C(=O)N1CCC[C@H]1C(=O)N1CCC[C@H]1C(=O)N1CCC[C@H]1C(=O)N[C@@H](CO)C(N)=O)C(C)C) [Compound 18] | 0.0517 | 0.0588 |  | 
3 | [NMeY][Aib]EGTFISDYSIAK([Gly-Gly-Glu-Glu-Glu-C15 diacid])DR[Aib]AQ[Aib]NFVNWLLAQK-NH2 (not fully specified) [Compound 30] |  | 0.0407 |  | 
4 | [NMeY][Aib]EGTFISDYSIALDR[Aib]K([AEEA-AEEA-γGlu-γGlu-C15 diacid])Q[Aib]NFVNWLLAQSPSSGAPPPS-NH2 (N-terminus assumed; SMILES CC[C@H](C)[C@H](NC(=O)[C@H](CO)NC(=O)[C@H](Cc1ccc(O)cc1)NC(=O)[C@H](CC(=O)O)NC(=O)[C@H](CO)NC(=O)[C@@H](NC(=O)[C@H](Cc1ccccc1)NC(=O)[C@@H](NC(=O)CNC(=O)[C@H](CCC(=O)O)NC(=O)C(C)(C)NC(=O)[C@H](Cc1ccc(O)cc1)NC)[C@@H](C)O)[C@@H](C)CC)C(=O)N[C@@H](C)C(=O)N[C@@H](CC(C)C)C(=O)N[C@@H](CC(=O)O)C(=O)N[C@@H](CCCNC(=N)N)C(=O)NC(C)(C)C(=O)N[C@@H](CCCCNC(=O)COCCOCCNC(=O)COCCOCCNC(=O)CC[C@H](NC(=O)CC[C@H](NC(=O)CCCCCCCCCCCCCC(=O)O)C(=O)O)C(=O)O)C(=O)N[C@@H](CCC(N)=O)C(=O)NC(C)(C)C(=O)N[C@@H](CC(N)=O)C(=O)N[C@@H](Cc1ccccc1)C(=O)N[C@H](C(=O)N[C@@H](CC(N)=O)C(=O)N[C@@H](Cc1c[nH]c2ccccc12)C(=O)N[C@@H](CC(C)C)C(=O)N[C@@H](CC(C)C)C(=O)N[C@@H](C)C(=O)N[C@@H](CCC(N)=O)C(=O)N[C@@H](CO)C(=O)N1CCC[C@H]1C(=O)N[C@@H](CO)C(=O)N[C@@H](CO)C(=O)NCC(=O)N[C@@H](C)C(=O)N1CCC[C@H]1C(=O)N1CCC[C@H]1C(=O)N1CCC[C@H]1C(=O)N[C@@H](CO)C(N)=O)C(C)C) [Compound 17] | 0.0675 | 0.064 |  | 
5 | [NMeY][Aib]EGTFISDYSIAK([AEEA-AEEA-γGlu-γGlu-C15 diacid])DR[Aib]AQ[Aib]NFVNWLLAQK-NH2 (N-terminus assumed; SMILES CC[C@H](C)[C@H](NC(=O)[C@H](CO)NC(=O)[C@H](Cc1ccc(O)cc1)NC(=O)[C@H](CC(=O)O)NC(=O)[C@H](CO)NC(=O)[C@@H](NC(=O)[C@H](Cc1ccccc1)NC(=O)[C@@H](NC(=O)CNC(=O)[C@H](CCC(=O)O)NC(=O)C(C)(C)NC(=O)[C@H](Cc1ccc(O)cc1)NC)[C@@H](C)O)[C@@H](C)CC)C(=O)N[C@@H](C)C(=O)N[C@@H](CCCCNC(=O)COCCOCCNC(=O)COCCOCCNC(=O)CC[C@H](NC(=O)CC[C@H](NC(=O)CCCCCCCCCCCCCC(=O)O)C(=O)O)C(=O)O)C(=O)N[C@@H](CC(=O)O)C(=O)N[C@@H](CCCNC(=N)N)C(=O)NC(C)(C)C(=O)N[C@@H](C)C(=O)N[C@@H](CCC(N)=O)C(=O)NC(C)(C)C(=O)N[C@@H](CC(N)=O)C(=O)N[C@@H](Cc1ccccc1)C(=O)N[C@H](C(=O)N[C@@H](CC(N)=O)C(=O)N[C@@H](Cc1c[nH]c2ccccc12)C(=O)N[C@@H](CC(C)C)C(=O)N[C@@H](CC(C)C)C(=O)N[C@@H](C)C(=O)N[C@@H](CCC(N)=O)C(=O)N[C@@H](CCCCN)C(N)=O)C(C)C) [Compound 22] |  | 0.0413 |  | 
6 | [NMeY][Aib]EGTFISDYSIALDR[Aib]AQ[Aib]K([AEEA-γGlu-γGlu-γGlu-C15 diacid])FVNWLLAQK-NH2 (N-terminus assumed; SMILES CC[C@H](C)[C@H](NC(=O)[C@H](CO)NC(=O)[C@H](Cc1ccc(O)cc1)NC(=O)[C@H](CC(=O)O)NC(=O)[C@H](CO)NC(=O)[C@@H](NC(=O)[C@H](Cc1ccccc1)NC(=O)[C@@H](NC(=O)CNC(=O)[C@H](CCC(=O)O)NC(=O)C(C)(C)NC(=O)[C@H](Cc1ccc(O)cc1)NC)[C@@H](C)O)[C@@H](C)CC)C(=O)N[C@@H](C)C(=O)N[C@@H](CC(C)C)C(=O)N[C@@H](CC(=O)O)C(=O)N[C@@H](CCCNC(=N)N)C(=O)NC(C)(C)C(=O)N[C@@H](C)C(=O)N[C@@H](CCC(N)=O)C(=O)NC(C)(C)C(=O)N[C@@H](CCCCNC(=O)COCCOCCNC(=O)CC[C@H](NC(=O)CC[C@H](NC(=O)CC[C@H](NC(=O)CCCCCCCCCCCCCC(=O)O)C(=O)O)C(=O)O)C(=O)O)C(=O)N[C@@H](Cc1ccccc1)C(=O)N[C@H](C(=O)N[C@@H](CC(N)=O)C(=O)N[C@@H](Cc1c[nH]c2ccccc12)C(=O)N[C@@H](CC(C)C)C(=O)N[C@@H](CC(C)C)C(=O)N[C@@H](C)C(=O)N[C@@H](CCC(N)=O)C(=O)N[C@@H](CCCCN)C(N)=O)C(C)C) [Compound 24] |  | 0.0512 |  | 
7 | [NMeY][Aib]EGTFISDYSIALDR[Aib]AQ[Aib]K([AEEA-γGlu-γGlu-γGlu-C15 diacid])FVNWLL[Aib]QK-NH2 (N-terminus assumed; SMILES CC[C@H](C)[C@H](NC(=O)[C@H](CO)NC(=O)[C@H](Cc1ccc(O)cc1)NC(=O)[C@H](CC(=O)O)NC(=O)[C@H](CO)NC(=O)[C@@H](NC(=O)[C@H](Cc1ccccc1)NC(=O)[C@@H](NC(=O)CNC(=O)[C@H](CCC(=O)O)NC(=O)C(C)(C)NC(=O)[C@H](Cc1ccc(O)cc1)NC)[C@@H](C)O)[C@@H](C)CC)C(=O)N[C@@H](C)C(=O)N[C@@H](CC(C)C)C(=O)N[C@@H](CC(=O)O)C(=O)N[C@@H](CCCNC(=N)N)C(=O)NC(C)(C)C(=O)N[C@@H](C)C(=O)N[C@@H](CCC(N)=O)C(=O)NC(C)(C)C(=O)N[C@@H](CCCCNC(=O)COCCOCCNC(=O)CC[C@H](NC(=O)CC[C@H](NC(=O)CC[C@H](NC(=O)CCCCCCCCCCCCCC(=O)O)C(=O)O)C(=O)O)C(=O)O)C(=O)N[C@@H](Cc1ccccc1)C(=O)N[C@H](C(=O)N[C@@H](CC(N)=O)C(=O)N[C@@H](Cc1c[nH]c2ccccc12)C(=O)N[C@@H](CC(C)C)C(=O)N[C@@H](CC(C)C)C(=O)NC(C)(C)C(=O)N[C@@H](CCC(N)=O)C(=O)N[C@@H](CCCCN)C(N)=O)C(C)C) [Compound 29] |  | 0.018 | 0.0001 nM | 47.1 nM
